# In patent US20250177546A1 (SANYOU BIOPHARMACEUTICALS, published 2025):
# Columns and labels:
# [1] = target: T1, huROR1-His (human ROR1 ECD AA30-406 with C-terminal His tag, made in house) (human, UniProt Q01973 30-406); assay: Gator (BLI) Advanced Kinetics; antibody 30 nM, huROR1-His 480-7.5 nM
# T1 construct: range 30-406; Expressed in HEK293; also called antigen protein huROR1-His; not shown: C-terminal His tag
# Method: First, Q buffer was prepared with PBS (10 mM pH7.4) (IgG-free, purchased from Jackson ImmunoResearch Lab)+0.02% Tween 20 (purchased from thermo)+0.2% BSA (purchased from source culture), and the stock solution of the test antibody was diluted with the prepared Q buffer to a working solution with a final concentration of 30 nM, the stock solution of the antigen protein huROR1-His was prepared with Q buffer into a working solution with multiple dilutions (480, 240, 120, 60, 30, 15, 7.5 nM), and detection and analysis was then performed with Gator instrument and its accompanying software, selecting the Advanced Kinetics experimental mode is used.
# [2] = target: T1, huROR1-His (human ROR1 ECD AA30-406 …); assay: ELISA, huROR1-His coated at 2 µg/mL, goat anti-human Fc-HRP, OD450
# Method: (§1) 96-well ELISA plate was coated with 2 μg/mL huROR1-His (30 μL/well) at 4° C. overnight. The next day, the plate was washed three times with PBST and then blocked with 5% skim milk for 2 h. […] After washing with PBST for three times, the secondary antibody Goat-anti-human Fc-HRP (abcam, ab97225) was added and incubated for 1 h. After incubation, the plate was washed with PBST for 6 times and TMB (SurModics, TMBS-1000-01) was added for color development. According to the color development results, 2 M HCl was added to terminate the reaction, and the data were read at OD450 using a microplate reader (Molecular Devices, SpecterMax 190).
# [3] = target: T2, huROR2-His (human ROR2 ECD AA34-403 with C-terminal His tag) (human, UniProt Q01974 34-403); assay: ELISA, huROR2-His coated at 2 µg/mL, goat anti-human Fc-HRP, OD450
# T2 construct: range 34-403; Expressed in HEK293; also called human ROR2 antigen protein; not shown: C-terminal His tag
# T2 sequence (Q01974 34-403 limits assumed): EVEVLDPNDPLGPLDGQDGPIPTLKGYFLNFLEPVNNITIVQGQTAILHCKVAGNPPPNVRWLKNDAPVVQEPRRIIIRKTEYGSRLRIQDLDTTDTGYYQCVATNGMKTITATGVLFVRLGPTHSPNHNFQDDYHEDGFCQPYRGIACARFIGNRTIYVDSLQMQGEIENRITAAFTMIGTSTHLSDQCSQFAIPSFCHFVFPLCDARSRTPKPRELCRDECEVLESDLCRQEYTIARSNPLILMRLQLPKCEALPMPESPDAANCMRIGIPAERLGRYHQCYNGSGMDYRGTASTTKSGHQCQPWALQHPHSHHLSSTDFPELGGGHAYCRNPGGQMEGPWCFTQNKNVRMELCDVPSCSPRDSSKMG
# Method: as §1, with “huROR2-His” for “huROR1-His”, “TMBS-1000-0)” for “TMBS-1000-01)”
# [4] = target: T3, MusROR1-His (mouse ROR1 ECD AA30-406 with C-terminal His tag) (mouse, UniProt Q9Z139 30-406); assay: ELISA, MusROR1-His coated at 2 µg/mL, goat anti-human Fc-HRP, OD450
# T3 construct: range 30-406; Expressed in HEK293; also called mouse ROR1 antigen protein; not shown: C-terminal His tag
# T3 sequence (Q9Z139 30-406 limits assumed): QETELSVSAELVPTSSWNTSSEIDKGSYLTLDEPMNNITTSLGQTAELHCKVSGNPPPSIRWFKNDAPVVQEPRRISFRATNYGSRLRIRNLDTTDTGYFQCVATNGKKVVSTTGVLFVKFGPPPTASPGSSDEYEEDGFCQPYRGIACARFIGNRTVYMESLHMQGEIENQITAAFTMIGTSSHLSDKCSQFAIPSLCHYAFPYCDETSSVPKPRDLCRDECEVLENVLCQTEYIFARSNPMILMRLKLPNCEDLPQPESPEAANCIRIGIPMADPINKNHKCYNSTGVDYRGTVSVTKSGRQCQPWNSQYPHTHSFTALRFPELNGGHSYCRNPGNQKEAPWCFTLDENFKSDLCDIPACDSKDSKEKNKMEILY
# Method: as §1, with “MusROR1-His” for “huROR1-His”
# [5] = target: T4, human ROR1 on cells (full-length human ROR1 on huROR1-HEK293 cells; human ROR1 on A549 and HT-29 tumor cells) (human, UniProt Q01973 30-937); assay: flow cytometry (FACS) on A549 tumor cells, anti-human IgG-Fc secondary antibody, MFI
# T4 construct: whole, on cells; also called hROR1-HEK293T; A549 tumor cells
# T4 sequence (Q01973 30-937): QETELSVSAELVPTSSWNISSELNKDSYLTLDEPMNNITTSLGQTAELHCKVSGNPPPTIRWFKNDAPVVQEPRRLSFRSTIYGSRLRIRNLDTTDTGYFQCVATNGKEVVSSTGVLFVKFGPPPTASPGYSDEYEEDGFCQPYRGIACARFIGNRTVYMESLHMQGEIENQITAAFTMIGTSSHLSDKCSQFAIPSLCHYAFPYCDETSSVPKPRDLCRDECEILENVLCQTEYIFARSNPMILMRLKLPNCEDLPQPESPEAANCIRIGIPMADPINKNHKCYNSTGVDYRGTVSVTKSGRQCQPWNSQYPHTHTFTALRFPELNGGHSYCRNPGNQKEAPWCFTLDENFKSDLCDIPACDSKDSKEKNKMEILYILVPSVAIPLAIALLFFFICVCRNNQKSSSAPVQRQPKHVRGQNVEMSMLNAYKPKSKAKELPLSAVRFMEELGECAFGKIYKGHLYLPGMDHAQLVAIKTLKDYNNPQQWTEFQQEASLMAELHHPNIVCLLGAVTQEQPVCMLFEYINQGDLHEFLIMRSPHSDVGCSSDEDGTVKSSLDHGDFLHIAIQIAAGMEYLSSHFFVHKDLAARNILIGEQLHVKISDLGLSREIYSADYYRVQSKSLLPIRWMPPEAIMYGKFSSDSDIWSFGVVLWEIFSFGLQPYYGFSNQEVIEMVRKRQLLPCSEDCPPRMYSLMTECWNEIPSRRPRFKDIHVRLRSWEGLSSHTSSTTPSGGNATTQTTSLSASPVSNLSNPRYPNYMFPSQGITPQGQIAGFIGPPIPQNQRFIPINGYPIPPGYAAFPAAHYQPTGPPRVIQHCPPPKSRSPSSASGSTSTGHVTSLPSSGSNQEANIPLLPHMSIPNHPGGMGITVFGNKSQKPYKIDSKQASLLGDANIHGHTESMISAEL
# Method: (§2) In this example, the binding activity of the antibody was evaluated using two types of cells, huROR1-HEK293 cells over-expressing human ROR1 and A549 tumor cells.
# (§3) The specific method was as follows: huROR1-HEK293 cells or A549 cells in the logarithmic growth phase were prepared to a single-cell suspension, the density was adjusted to 1×10⁶ cells/mL, then 100 μL/well cells were added to a 96-well round-bottom plate, centrifuged at 4° C., 300 g, and the supernatant was removed. […] After the incubation, the cell mixture was washed three times and then 100 μL of 1:300 diluted secondary antibody Goat F(ab′)₂ Anti-Human IgG-Fc (abcam, ab98596) was added. The mixture was incubated at 4° C. in the dark for 30 min. After washing three times, the cells were detected by flow cytometry (Beckman, CytoFLEX AOO-1-1102).
# [6] = target: T4, human ROR1 on cells (full-length human …); assay: flow cytometry (FACS) on huROR1-HEK293 cells, anti-human IgG-Fc secondary antibody, MFI
# Method: as §2, §3
# T1 sequence (Q01973 30-406 limits assumed): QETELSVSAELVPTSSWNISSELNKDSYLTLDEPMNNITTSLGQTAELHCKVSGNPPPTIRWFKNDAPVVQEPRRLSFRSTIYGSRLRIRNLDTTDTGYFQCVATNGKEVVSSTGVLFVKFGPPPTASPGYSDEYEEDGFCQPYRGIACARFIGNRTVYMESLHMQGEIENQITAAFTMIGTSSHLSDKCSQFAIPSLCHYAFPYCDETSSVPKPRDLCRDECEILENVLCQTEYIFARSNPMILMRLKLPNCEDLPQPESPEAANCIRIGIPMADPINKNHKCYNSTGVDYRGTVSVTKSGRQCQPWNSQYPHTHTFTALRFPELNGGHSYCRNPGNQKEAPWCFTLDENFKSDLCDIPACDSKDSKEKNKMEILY
Kd [1] [nM],koff [1] [s⁻¹],kon [1] [M⁻¹ s⁻¹],EC50 [2] [µg/mL],binding result [3],EC50 (read off the curve) [4] [µg/mL],EC50 (read off the curve) [5] [µg/mL],EC50 (read off the curve) [6] [µg/mL],binding result [4],Binder
1.25,0.000377,301000,0.00575,no binding (tested: 1 µg/mL),~0.04,~0.02,~0.1,–,"B32 (chimeric antibody) (antibody, human IgG1, kappa, V domains shown, ExpiCHO expression) VH: EVKLMESGGGLVKPGGSLKLSCAASGFAFSSYAMSWVRQTPDKRLEWVASINRDVTTYYPDSMKGRFTISRDNARNILYLQMSSLRSEDTAMYYCARGYYYGGGPYWHFDVWGAGTTVTVSS VL: DIQITQSPSSMYASLGERVTITCKASQDINSYLTWFQQKPGKSPKTLIYRANRLVDGVPSRFSGSGSGQDYSLTISSLEYEDMGIYYCLQFDEFPYTFGGGTKLEIKR"
1.44,0.000464,323000,0.00513,no binding (tested: 1 µg/mL),–,~0.01,~0.2,no binding (tested: 1 µg/mL),"B74 (chimeric antibody) (antibody, human IgG1, kappa, V domains shown, ExpiCHO expression) VH: EVMLVESGGNLVKPGGSLKLSCAASGFTFSIYAMSWVRQTPEKRLEWVASISGGGTAYYPDSVKGRFTISRDNARNILYLQMSSLRSEDTAIYYCARGYYYGGSPYWHFDVWGAGTTVTVSS VL: DIKMTQSPSSMYASLGERVTITCKASQDINSYLSWFQQKPGKSPKTLIYRANRLVDGVPSRFSGSGSGQDYSLTISSLEYEDIGIYYCLQIDEFPYTFGGGTKLEIKR"
1.34,0.000422,314000,0.00371,no binding (tested: 1 µg/mL),~0.03,~0.02,~0.1,–,"C38 (chimeric antibody) (antibody, human IgG1, kappa, V domains shown, ExpiCHO expression) VH: EVMLVESGGGLVRPGGSLKLSCAASGFTFSSYAMSWVRQTPDKRLEWVASINRDVTTYYPDSVKGRFTISRDNARNILYLQMSSLRSEDTAMYYCARDYYYGSSLYYGMDYWGQGTSVTVSS VL: DIQMTQSPSSMHASLGERVTITCKASQDINNYVSWFQQKPGKSPKTLIYRANRLVDGVPSRFSGSGSGQDYSFTISSLEYEDMGIYYCLQFDEFPYTFGGGTKLEIKR"
4.43,0.00135,304000,0.00552,no binding (tested: 1 µg/mL),–,~0.01,~0.1,no binding (tested: 1 µg/mL),"B39 (chimeric antibody) (antibody, human IgG1, kappa, V domains shown, ExpiCHO expression) VH: EVKLVESGGGLVKPGGSLKLSCAASGFTFSTYAMSWVRQTPEKRLEWVASISTGASTYYPDSVKGRFTISRDNARNILYLQMSSLRSEDTAMYYCAREETTTAALYYAMDYWGQGTSVTVSS VL: DIKITQSPSSMYASLGERVTITCKASQDINNYLSWFQQKPGKSPKTLIYRANRLVDGVPSRFSGSGSGQDYSLTISSLEYEDMGIYYCLQFDEFPYTFGGGTKLEIKR"
2.47,0.000774,314000,0.00603,no binding (tested: 1 µg/mL),–,~0.02,~0.1,no binding (tested: 1 µg/mL),"C77 (chimeric antibody) (antibody, human IgG1, kappa, V domains shown, ExpiCHO expression) VH: EVKLVESGGGLVKPGGSLKLSCAASGFSFSNYAMSWVRQTPEKRLEWVASINSGVTTYYPDSVKGRFTVSRDNARNILYLHMTGLRSEDTAIYYCSRGYYYGGSPYWHFDVWGAGTTVTVSS VL: DIQMTQSPSSMHASLGERVTITCKASQDINNYVSWFQQKPGKSPKTLIYRANRLVDGVPSRFSGSGSGQDYSFTISSLEYEDMGIYYCLQFDEFPYTFGGGTKLEIKR"
2.52,0.000609,241000,0.00628,no binding (tested: 1 µg/mL),–,~0.04,~0.2,no binding (tested: 1 µg/mL),"B34 (chimeric antibody) (antibody, human IgG1, kappa, V domains shown, ExpiCHO expression) VH: EVQLVESGGGLVQPKGSLKLSCAASGFTFSRYAMSWVRQTPEKRLEWVASISTGGSPYYPDSVKGRFTISRDNARNILYLQMSSLKSEDTAMYYCARGYYYNSSPHWYFAVWGAGTSVTVSS VL: DIQMTQSPSSLSASLGERVTITCKASQDINSYLSWFQQKPGKSPKTLIYRANRLVDGVPSRFSGSGSGQDYSLTISSLEYEDMGIYYCLQYDEFPYTFGGGTKLEIKR"
1.54,0.00054,351000,0.0077,no binding (tested: 1 µg/mL),–,~0.01,~0.08,no binding (tested: 1 µg/mL),"M71 (chimeric antibody) (antibody, human IgG1, kappa, V domains shown, ExpiCHO expression) VH: EVMLVESGGGLVKPGGSLKLSCAASGFTFSRYAMSWVRQTPEKRLEWVASINRGGTTYYPDSVKGRFTISRDNARDILYLQMSSLRSEDTAIYYCARDYYYGSSLYNGMDFWGQGTSVIVSS VL: DIQMTQSPSSMYASLGERVTITCKASQDINSYLSWFQQKPGKSPKTLIYRANRLVDGVPSRFSGSGSGQDYSLTISSLESEDMGIYYCLQFDEFPYTFGGGTKLEIKR"
1.86,0.000614,330000,0.00212,no binding (tested: 1 µg/mL),–,~0.02,~0.1,no binding (tested: 1 µg/mL),"M78 (chimeric antibody) (antibody, human IgG1, kappa, V domains shown, ExpiCHO expression) VH: EVMLVESGGGLVRPGGSLKLSCAASGFTFSSYAMSWVRQSPEKRLEWVASINRGGTTYYPDSVKGRFTISRDNARDILYLQMSSLRSEDTAIYYCARDYYYGSNLYNGMDYWGQGTSVIVSS VL: DIKITQSPSSMYASLGERVTITCKASQDINSYLSWFQQKPGKSPKTLIYRANRLVDGVPSRFSGSGSGQDYSLTISSLEYEDMGIYYCLQFDEFPYTFGGGTKLEIKR"
29.6,0.00325,110000,0.00203,no binding (tested: 1 µg/mL),–,~0.03,~0.2,binds,"C42 (chimeric antibody) (antibody, human IgG1, kappa, V domains shown, ExpiCHO expression) VH: EVMLVESGGGLVKPGGSLKLSCAASGFTFSNYIMSWVRQTPEKRLEWVATINSGGTNTYYPDSVKGRFTISRDNAKNSLYLQMNSLRSEDTALYYCTRYNGNYVWFAYWGQGTLVTVSA VL: DIVLTQSPAIMSASPGEKVTMTCSASSSVSFIYWYQQKPGSSPRLLIYDTSNLASGVPVRFSGSGSGTSYSLTISRMEAEDAATYYCQQWSNYHFTFGSGTKLEIKR"
